# Test results reported in patent publication US20240174744A1 (SCIRHOM, published 2024).
# T1: human iRhom2 (inactive rhomboid protein 2, isoform 1), endogenously expressed on human cells (human, UniProt Q6PJF5 1-856)
# T1 sequence: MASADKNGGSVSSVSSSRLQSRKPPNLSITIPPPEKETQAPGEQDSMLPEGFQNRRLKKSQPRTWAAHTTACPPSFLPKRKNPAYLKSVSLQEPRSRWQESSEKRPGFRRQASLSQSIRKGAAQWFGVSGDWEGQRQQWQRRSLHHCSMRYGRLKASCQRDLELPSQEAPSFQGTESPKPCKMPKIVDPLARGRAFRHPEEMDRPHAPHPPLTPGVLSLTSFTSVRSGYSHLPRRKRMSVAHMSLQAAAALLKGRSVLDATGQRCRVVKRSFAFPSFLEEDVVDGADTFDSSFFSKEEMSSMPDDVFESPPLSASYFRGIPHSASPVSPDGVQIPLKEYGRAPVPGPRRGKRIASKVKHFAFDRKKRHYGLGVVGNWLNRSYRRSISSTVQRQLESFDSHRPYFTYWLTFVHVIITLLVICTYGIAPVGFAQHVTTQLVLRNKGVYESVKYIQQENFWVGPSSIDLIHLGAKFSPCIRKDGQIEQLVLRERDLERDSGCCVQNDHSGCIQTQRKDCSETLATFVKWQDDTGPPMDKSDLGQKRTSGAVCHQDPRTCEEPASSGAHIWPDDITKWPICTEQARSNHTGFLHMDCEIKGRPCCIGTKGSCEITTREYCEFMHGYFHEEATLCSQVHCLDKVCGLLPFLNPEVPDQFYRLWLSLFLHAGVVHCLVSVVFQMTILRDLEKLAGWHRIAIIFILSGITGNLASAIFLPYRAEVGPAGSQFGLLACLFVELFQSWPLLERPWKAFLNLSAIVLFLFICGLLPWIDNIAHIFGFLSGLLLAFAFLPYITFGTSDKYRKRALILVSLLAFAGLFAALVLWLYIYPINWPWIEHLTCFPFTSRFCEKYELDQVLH
# T2: miR2-FL-WT-FLAG (mouse iRhom2 full length wild type C-terminally tagged with the triple-FLAG epitope) (mouse, UniProt Q80WQ6 1-827)
# T2 construct: also called expressed by MEF-DKO-miR2-FL-WT-FLAG cells
# T2 sequence: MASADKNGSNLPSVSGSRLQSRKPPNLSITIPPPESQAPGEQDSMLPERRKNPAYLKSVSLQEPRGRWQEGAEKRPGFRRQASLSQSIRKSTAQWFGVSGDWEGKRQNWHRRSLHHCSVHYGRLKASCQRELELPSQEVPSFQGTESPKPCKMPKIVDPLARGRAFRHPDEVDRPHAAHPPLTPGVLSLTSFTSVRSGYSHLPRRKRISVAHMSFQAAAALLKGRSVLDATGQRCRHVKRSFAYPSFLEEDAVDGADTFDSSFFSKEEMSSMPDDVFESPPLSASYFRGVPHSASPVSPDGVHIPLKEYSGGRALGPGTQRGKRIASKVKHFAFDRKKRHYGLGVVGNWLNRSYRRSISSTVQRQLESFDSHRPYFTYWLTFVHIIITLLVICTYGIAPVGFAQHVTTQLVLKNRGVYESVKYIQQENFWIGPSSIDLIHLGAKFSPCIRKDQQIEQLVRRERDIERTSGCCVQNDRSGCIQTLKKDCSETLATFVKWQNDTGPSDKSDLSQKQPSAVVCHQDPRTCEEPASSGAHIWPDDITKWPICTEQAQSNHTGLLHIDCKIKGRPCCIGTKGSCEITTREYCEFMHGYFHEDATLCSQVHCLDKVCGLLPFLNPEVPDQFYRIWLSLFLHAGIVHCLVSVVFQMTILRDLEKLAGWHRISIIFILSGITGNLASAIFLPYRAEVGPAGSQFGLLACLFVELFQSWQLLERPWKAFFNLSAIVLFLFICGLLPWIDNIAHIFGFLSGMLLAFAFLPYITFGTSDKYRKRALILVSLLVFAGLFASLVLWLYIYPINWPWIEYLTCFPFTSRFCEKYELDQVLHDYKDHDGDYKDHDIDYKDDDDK
# Assays:
# [1] = target: T1, human iRhom2 (inactive rhomboid protein …); experiment: cell-based or functional assay
# [2] = target: T2, miR2-FL-WT-FLAG (mouse iRhom2 full …); experiment: FACS, MEF-DKO-miR2-FL-WT-FLAG cells
# Method: In brief, immortalized MEF-DKO-EV control cells, MEF-DKO-hiR2-FL-WT-FLAG cells and MEF-DKO-miR2-FL-WT-FLAG cells were harvested with 10 mM EDTA in PBS, washed and resuspended in FACS buffer (PBS, 3% FBS, 0.05% sodium azide), and seeded in Nunc U-bottom 96-well plates (Thermo Fisher Scientific, USA) at approximately 3×10⁵ cells per well. To pellet cells and remove supernatants, the plates were centrifuged at 1,500 rpm and 4° C. for 3 minutes. For primary staining, cells were resuspended in 100 μl per well of either FACS buffer alone (controls), mouse monoclonal anti-FLAG IgG (Sigma-Aldrich, USA) at 3 μg/ml FACS buffer or the antibodies of the present disclosure also at 3 μg/ml FACS buffer and incubated on ice for 1 hour. Afterwards, plates were centrifuged at 1,500 rpm and 4° C. for 3 minutes and washed twice with 200 μl per well of FACS buffer. For secondary staining, cells were spun down and resuspended in 100 μl per well of PE-conjugated goat anti-mouse IgG F(ab′)2 detection fragment (Dianova, Germany) diluted 1:100 in FACS buffer. Protected from light, the cell suspensions were incubated on ice for 1 hour. Plates were then centrifuged at 1,500 rpm and 4° C. for 3 minutes and washed three times with 200 μl per well of FACS buffer. Finally, cells were resuspended in 150 μl per well of FACS buffer and analyzed using a BD Accuri™ C6 Plus flow cytometer (Becton Dickinson, Germany).
Binder,"inhibition of LPS-induced release of TNFα from THP-1 cells, recombinant antibody [1]",binding result [2],"inhibition of LPS-induced release of TNFα from PBMCs of healthy donors, 1 µg/ml [1]","inhibition of LPS-induced release of TNFα from THP-1 cells, 10 µg/ml, antibody purified from hybridoma [1]",inhibition of LPS-induced release of TNFα from human macrophages of healthy donors [1],"inhibition of PMA-induced release of HB-EGF from PBMCs of healthy donors, 1 µg/ml [1]","inhibition of PMA-induced release of HB-EGF from THP-1 cells, 3 µg/ml [1]",inhibition of PMA-induced release of HB-EGF from U-937 cells [1],"inhibition of PMA-induced release of IL-6R from PBMCs of healthy donors, 1 µg/ml [1]","inhibition of PMA-induced release of IL-6R from THP-1 cells, 1 µg/ml [1]","inhibition of PMA-induced release of IL-6R from U-937 cells, 1 µg/ml [1]","inhibition of PMA-induced release of IL-6R from U-937 cells, 3 µg/ml [1]","inhibition of PMA-induced release of TGFα from PC3 cells, 1 µg/ml [1]","inhibition of PMA-induced release of TNFα from U-937 cells, 1 µg/ml [1]","inhibition of PMA-induced release of TNFα from U-937 cells, 3 µg/ml [1]"
"antibody 46 (antibody, V domains shown, Mouse IgG, kappa light chain; also called clone #46) VH: QVTLKESGPGILQPSQTLSLTCSFSGFSLSTFGMGVGWIRQPSGKGLEWLAHIWWDDDNYYNQALKSRLTISKDNTKNQVFLNIANVDTADTATYYCARIRSYDYDVRYAMDYWGQGTSVTVSS VL: DIKMTQSPSSMYASLRERVTITCKASQDINSYLSWFQQKPGKSPKTLIYRANRLVDGVPSRFSGSGSGQDYSLTISSLEYEDLGIYYCQQYYEFPLTFGAGTRLELK",36.1 % inhibition,no binding (tested: 3 µg/ml),–,–,–,–,–,–,–,–,–,–,–,–,–
"antibody 22 (antibody, V domains shown, Mouse IgG, kappa light chain; also called clone #22; m22) VH: QVTLKESGPGILQPSQTLSLTCSFSGFSLSTFGMGVGWIRQPSGKGLEWLAHIWWDDEKYYNSALKSRLTISKATSKNQVFLKIANVDTADTATYYCARISNYGSNYWYFNVWGTGTTVTVSS VL: QVVLTQSPALMSASPGEKVTMTCSAGSSVSYMYWYQQKPGSSPRVLIYDTSNLASGVPARFTGSGSGTSYSLTISRMEAEDAATYYCQQWNSYPLTFGAGTKLELK",78.4 % inhibition,no binding (tested: 3 µg/ml),72.8 % inhibition,78.8 % inhibition,78.8 % inhibition,56.5 % inhibition,77.7 % inhibition,101 % inhibition,79.3 % inhibition,67.4 % inhibition,74.5 % inhibition,79 % inhibition,12.7 % inhibition,86.1 % inhibition,93.1 % inhibition
"antibody 57 (antibody, V domains shown, Mouse IgG, kappa light chain; also called clone #57) VH: QVTLKESGPGILQPSQTLSLTCSFSGFSLSTFGMGVGWIRQPSGKGLEWLAHIWWDDDKYYNPALKSRLTISKDTSKNQIFLKIANVDTADSATFYCARIENYGSNYWYFDVWGTGTTVTVSS VL: QIVLTQSPAIMSASPGEKVTMTCSASSSVSYMYWYQQKPGSSPRVLIYDTSNLASGVPVRFSGSGSGTSYSLTVSRMEAEDAATYYCQQWNSYPLTFGAGTKLELK",59.7 % inhibition,no binding (tested: 3 µg/ml),–,–,–,–,–,–,–,–,–,–,–,–,–
"antibody 42 (antibody, V domains shown, Mouse IgG, kappa light chain; also called clone #42; m42) VH: QVTLKESGPGILQPSQTLSLTCSLSGFSLSTFGRGVGWIRQPSGKGLEWLAHIWWDDEKYYNPALKSRLTISKDTSKNQVFLRIANVDTADTATYYCARIQNYGSNYWYFDVWGTGTTVTVSS VL: LIVLTQSPAIMSASPGEKVTMTCGATSRISYMFWYQQKPGSSPRVLIYDTSNLASGVPVRFSGSGSGTSYSLTISRVEAEDVATYYCQQWNSYPLTFGAGTKLELK",75.9 % inhibition,no binding (tested: 3 µg/ml),77 % inhibition,76.7 % inhibition,93.2 % inhibition,77.6 % inhibition,76.6 % inhibition,104 % inhibition,85 % inhibition,85.9 % inhibition,80.8 % inhibition,84.4 % inhibition,14.3 % inhibition,94.5 % inhibition,94.1 % inhibition
"antibody 54 (antibody, V domains shown, Mouse IgG, kappa light chain; also called clone #54) VH: QVTLKESGPGILQPSQTLSLTCSFSGFSLSTFGLGVGWIRQPSGKGLECLAHIWWDDDKYSNPALKSRLTISKDTSKNQVFLKIANVDSADTATYFCARILNYGSNYWYFDVWGTGTTVTVSS VL: QIVLTQSPALMSASPGEKVTMTCSASSSISYMYWYQQKPGSSPRLLIYDTSNLASGVPVRFSGSGSGTSFSLTVSRMEAEDAATYYCQQWNSYPLTFGAGTKLELK",67.9 % inhibition,no binding (tested: 3 µg/ml),–,–,–,–,–,–,–,–,–,–,–,–,–
"antibody 56 (antibody, V domains shown, Mouse IgG, kappa light chain; also called clone #56) VH: QVTLKESGPGILQPSQTLSLTCSFSGFSLSTFGMGVGWIRQPSGKGLEWLTNIWWDDDKYYNSVLKSRLTISKDTSKNQVFLKIANVDTADTATYYCARIAAYGSNYWYFDVWGTGTTVTVSS VL: QIVLTQSPAIMSASPGEKVTMTCSASSSVSYMYWYQQKPGSSPRVLIYDTSNLSSGVPVRFSGSGSGTSYSLTISRMEAEDAATYYCQQWSSYPLTFGAGTKLELK",65.8 % inhibition,no binding (tested: 3 µg/ml),–,–,–,–,–,–,–,–,–,–,–,–,–
"antibody 49 (antibody, V domains shown, Mouse IgG, kappa light chain; also called clone #49) VH: QVTLKESGPGILQPSQTLSLTCSFSGFSLSTFGMGVGWIRQPSGKGLEWLAHIWWDDDKYYNPALQSRLTVSKDTAKNQVFLKIANVDTADTAIYYCARVGNYGSNYWYFAVWGTGTTVTVSS VL: QIVLTQSPAIMSASPGEKVTMTCSASSSVSYMYWYQQKPGSSPRLLIYDTSNLASGVPVRFSGSGSGTSYSLTISRMEAEDAATYYCQQWNSYPLTFGAGTKLELK",59.9 % inhibition,no binding (tested: 3 µg/ml),–,–,–,–,–,–,–,–,–,–,–,–,–
"antibody 34 (antibody, V domains shown, Mouse IgG, kappa light chain; also called clone #34; m34) VH: QVTLKESGPGILQPSQTLSLTCSFSGFSLSTFSLGVGWIRQSSGKGLEWLAHIWWDDEKYYNPALKSRLTISKDTSKNQVFLKIANVDAADTATYYCARAYYSKSYYALDYWGQGTSVTVSS VL: DIQMTQSPSSLSASLGERVSLTCRASQEISGYLSWLQQKPDGTIKRLIYAASTLDSGVPKRFSGSRSGSDYSLAISSLESEDFADYYCLQYANFPFTFGSGTKLEIK",73.8 % inhibition,no binding (tested: 3 µg/ml),–,27.3 % inhibition,–,–,64.2 % inhibition,98.2 % inhibition,–,71.1 % inhibition,69.3 % inhibition,74.6 % inhibition,–,68.6 % inhibition,79.9 % inhibition
